Results reported in PMC10020445, “Mechanism underlying delayed rectifying in human voltage-mediated activation Eag2 channel” (Nature Communications, 2023).

Biological target: the molecule itself
Experiment: cryo-EM structure; purified hEag2 in 20 mM Tris-HCl pH 8.0, 150 mM KCl, 1 mM MgCl2, 0.03% digitonin, about 5 mg/ml; six maps (closed 1, closed 2, pre-open 1, pre-open 2, open, pore dilation but non-conducting) refined with C4 symmetry imposed

B1: human Eag2 (hEag2) voltage-gated potassium channel (natural protein, UniProt Q8NCM2 1-988, looked up)
chain: MPGGKRGLVAPQNTFLENIVRRSSESSFLLGNAQIVDWPVVYSNDGFCKLSGYHRADVMQKSSTCSFMYGELTDKKTIEKVRQTFDNYESNCFEVLLYKKNRTPVWFYMQIAPIRNEHEKVVLFLCTFKDITLFKQPIEDDSTKGWTKFARLTRALTNSRSVLQQLTPMNKTEVVHKHSRLAEVLQLGSDILPQYKQEAPKTPPHIILHYCAFKTTWDWVILILTFYTAIMVPYNVSFKTKQNNIAWLVLDSVVDVIFLVDIVLNFHTTFVGPGGEVISDPKLIRMNYLKTWFVIDLLSCLPYDIINAFENVDEGISSLFSSLKVVRLLRLGRVARKLDHYLEYGAAVLVLLVCVFGLVAHWLACIWYSIGDYEVIDEVTNTIQIDSWLYQLALSIGTPYRYNTSAGIWEGGPSKDSLYVSSLYFTMTSLTTIGFGNIAPTTDVEKMFSVAMMMVGSLLYATIFGNVTTIFQQMYANTNRYHEMLNNVRDFLKLYQVPKGLSERVMDYIVSTWSMSKGIDTEKVLSICPKDMRADICVHLNRKVFNEHPAFRLASDGCLRALAVEFQTIHCAPGDLIYHAGESVDALCFVVSGSLEVIQDDEVVAILGKGDVFGDIFWKETTLAHACANVRALTYCDLHIIKREALLKVLDFYTAFANSFSRNLTLTCNLRKRIIFRKISDVKKEEEERLRQKNEVTLSIPVDHPVRKLFQKFKQQKELRNQGSTQGDPERNQLQVESRSLQNGASITGTSVVTVSQITPIQTSLAYVKTSESLKQNNRDAMELKPNGGADQKCLKVNSPIRMKNGNGKGWLRLKNNMGAHEEKKEDWNNVTKAESMGLLSEDPKSSDSENSVTKNPLRKTDSCDSGITKSDLRLDKAGEARSPLEHSPIQADAKHPFYPIPEQALQTTLQEVKHELKEDIQLLSCRMTALEKQVAEILKILSEKSVPQASSPKSQMPLQVPPQIPCQDIFSVSRPESPESDKDEIHF
notes: human Eag2 potassium channel (hEag2), UniProtKB Q8NCM2; gene placed before a PreScission protease site, followed by C-terminal EGFP and FLAG; the C-terminal GFP tag was removed with HRV 3C protease; the methods describe only one construct; FLAG stands after EGFP behind the protease site, so it leaves with the GFP tag; Residues with poor side-chain density were modelled as alanines in the …
  stoichiometry N: 4
